Assay results: US20220133863A1 (SHIRE HUMAN GENETIC THERAPIES, published 2022)

Tests used:
[1] = biological target: the molecule itself; test: SEC-MALS and analytical ultracentrifugation; self-association (homotrimer)
[2] = biological target: the molecule itself; test: X-ray crystal structure; self-association (homotrimer)
Experimental: The crystals (FIG. 8) were obtained from rhNaglu protein purified from culture media treated with mannosidase-I inhibitor, Kifunensine. Naglu Kif contains identical protein sequences as rhNaglu, but different glycosylation pattern. The crystals acquired of Naglu Kif were grown at pH=7.5 and the structure of Naglu Kif was solved at 2.4 Å resolution by X-ray crystallography. Naglu structure (FIG. 9) is identified as having three distinct domains, a N-terminal domain (Domain-I, aa 24-126) followed by a (a/(3)8 barrel domain containing the catalytic glutamates (Domain-II, aa 127-467) and an all helical C-terminal domain (Domain-III, aa 468-743). Similar domain structure has been observed for another Glycoside Hydrolase family-89 protein, cpGH89, a bacterial homolog of Naglu (Ficko-Blean E, et al., PNAS May 6, 2008 vol. 105 no. 18 6560-6565). The active site is at a cleft between domains II and III and the catalytic residues are identified as E316 and E446 located on domain II.

Row | Protein | binding result [1] | binding result [2]
1 | recombinant Naglu-IGFII fusion protein (enzyme, glycosylated; negative for M6P glycosylation, Secreted from HT1080 cells) DEAREAAAVRALVARLLGPGPAADFSVSVERALAAKPGLDTYSLGGGGAARVRVRGSTGVAAAAGLHRYLRDFCGCHVAWSGSQLRLPRPLPAVPGELTEATPNRYRYYQNVCTQSYSFVWWDWARWEREIDWMALNGINLALAWSGQEAIWQRVYLALGLTQAEINEFFTGPAFLAWGRMGNLHTWDGPLPPSWHIKQLYLQHRVLDQMRSFGMTPVLPAFAGHVPEAVTRVFPQVNVTKMGSWGHFNCSYSCSFLLAPEDPIFPIIGSLFLRELIKEFGTDHIYGADTFNEMQPPSSEPSYLAAATTAVYEAMTAVDTEAVWLLQGWLFQHQPQFWGPAQIRAVLGAVPRGRLLVLDLFAESQPVYTRTASFQGQPFIWCMLHNFGGNHGLFGALEAVNGGPEAARLFPNSTMVGTGMAPEGISQNEVVYSLMAELGWRKDPVPDLAAWVTSFAARRYGVSHPDAGAAWRLLLRSVYNCSGEACRGHNRSPLVRRPSLQMNTSIWYNRSDVFEAWRLLLTSAPSLATSPAFRYDLLDLTRQAVQELVSLYYEEARSAYLSKELASLLRAGGVLAYELLPALDEVLASDSRFLLGSWLEQARAAAVSEAEADFYEQNSRYQLTLWGPEGNILDYANKQLAGLVANYYTPRWRLFLEALVDSVAQGIPFQQHQFDKNVFQLEQAFVLSKQRYPSQPRGDTVDLAKKIFLKYYPRWVAGSWGAPGGGGGAAAAAGGGGGGAPGGGGGAAAAAGGGGGGAPGGGGGAAAAAGGGGGGAPLCGGELVDTLQFVCGDRGFYFSRPASRVSRRSRGIVEECCFRSCDLALLETYCATPAKSE | binds | 
2 | Naglu-Kif (enzyme, mostly high mannose glycans (produced with Kifunensine in the medium); N-glycans at N261, N272, N435, N503, N526 and N532 (precursor numbering), This is the protein that was crystallised (2.4 A)) DEAREAAAVRALVARLLGPGPAADFSVSVERALAAKPGLDTYSLGGGGAARVRVRGSTGVAAAAGLHRYLRDFCGCHVAWSGSQLRLPRPLPAVPGELTEATPNRYRYYQNVCTQSYSFVWWDWARWEREIDWMALNGINLALAWSGQEAIWQRVYLALGLTQAEINEFFTGPAFLAWGRMGNLHTWDGPLPPSWHIKQLYLQHRVLDQMRSFGMTPVLPAFAGHVPEAVTRVFPQVNVTKMGSWGHFNCSYSCSFLLAPEDPIFPIIGSLFLRELIKEFGTDHIYGADTFNEMQPPSSEPSYLAAATTAVYEAMTAVDTEAVWLLQGWLFQHQPQFWGPAQIRAVLGAVPRGRLLVLDLFAESQPVYTRTASFQGQPFIWCMLHNFGGNHGLFGALEAVNGGPEAARLFPNSTMVGTGMAPEGISQNEVVYSLMAELGWRKDPVPDLAAWVTSFAARRYGVSHPDAGAAWRLLLRSVYNCSGEACRGHNRSPLVRRPSLQMNTSIWYNRSDVFEAWRLLLTSAPSLATSPAFRYDLLDLTRQAVQELVSLYYEEARSAYLSKELASLLRAGGVLAYELLPALDEVLASDSRFLLGSWLEQARAAAVSEAEADFYEQNSRYQLTLWGPEGNILDYANKQLAGLVANYYTPRWRLFLEALVDSVAQGIPFQQHQFDKNVFQLEQAFVLSKQRYPSQPRGDTVDLAKKIFLKYYPRWVAGSW |  | binds
3 | recombinant human Naglu (enzyme, glycosylated; lacks mannose-6-phosphate glycan, also called rhNaglu; alpha-N-acetyl-glucosaminidase) DEAREAAAVRALVARLLGPGPAADFSVSVERALAAKPGLDTYSLGGGGAARVRVRGSTGVAAAAGLHRYLRDFCGCHVAWSGSQLRLPRPLPAVPGELTEATPNRYRYYQNVCTQSYSFVWWDWARWEREIDWMALNGINLALAWSGQEAIWQRVYLALGLTQAEINEFFTGPAFLAWGRMGNLHTWDGPLPPSWHIKQLYLQHRVLDQMRSFGMTPVLPAFAGHVPEAVTRVFPQVNVTKMGSWGHFNCSYSCSFLLAPEDPIFPIIGSLFLRELIKEFGTDHIYGADTFNEMQPPSSEPSYLAAATTAVYEAMTAVDTEAVWLLQGWLFQHQPQFWGPAQIRAVLGAVPRGRLLVLDLFAESQPVYTRTASFQGQPFIWCMLHNFGGNHGLFGALEAVNGGPEAARLFPNSTMVGTGMAPEGISQNEVVYSLMAELGWRKDPVPDLAAWVTSFAARRYGVSHPDAGAAWRLLLRSVYNCSGEACRGHNRSPLVRRPSLQMNTSIWYNRSDVFEAWRLLLTSAPSLATSPAFRYDLLDLTRQAVQELVSLYYEEARSAYLSKELASLLRAGGVLAYELLPALDEVLASDSRFLLGSWLEQARAAAVSEAEADFYEQNSRYQLTLWGPEGNILDYANKQLAGLVANYYTPRWRLFLEALVDSVAQGIPFQQHQFDKNVFQLEQAFVLSKQRYPSQPRGDTVDLAKKIFLKYYPRWVAGSW | binds | 
